Paper PMC8028696 (Journal of Molecular Biology, 2021)

Molecular target: SARS-CoV-2 RBD (SARS-CoV-2 (P0DTC2 reference)); strain …, UniProt P0DTC2, biotin (site-specific, BirA, on the AviTag))
Experiment: BLI

B1: IgG 15036 (antibody, V domains shown)
VH: EVQLVESGGGLVQPGGSLRLSCAASGFDFTAYDIHWVRQAPGKGLEWVAGISASGGYTAYADSVKGRFTISADTSKNTAYLQMNSLRAEDTAVYYCARDGFHSYALDYWGQGTLVTVSS
VL: DIQMTQSPSSLSASVGDRVTITCRASQSVSSAVAWYQQKPGKAPKLLIYSASSLYSGVPSRFSGSRSGTDFTLTISSLQPEDFATYYCQQWYSLFTFGQGTKVEIK
Binder B1 has a Kd of 2.2 ± 0.2 nM.

B2: IgG 15046 (antibody, V domains shown)
VH: EVQLVESGGGLVQPGGSLRLSCAASGFDFGSYAMHWVRQAPGKGLEWVAGIYASGGYTDYADSVKGRFTISADTSKNTAYLQMNSLRAEDTAVYYCARGWSYYWGFDYWGQGTLVTVSS
VL: DIQMTQSPSSLSASVGDRVTITCRASQSVSSAVAWYQQKPGKAPKLLIYSASSLYSGVPSRFSGSRSGTDFTLTISSLQPEDFATYYCQQYDYGLFTFGQGTKVEIK
Work on B2 yielded a Kd of 3.7 ± 0.1 nM.
